Several values for one entry are separate records, joined by “and”; a condition that tells them apart may be missing. Identical values can stand only once.
Key:
truncated hPHGDH form = molecular target: truncated hPHGDH form; parameters: method as in PMID 29262655; conditions: isothermal calorimetry; cited from earlier work
hPHGDH [1] = molecular target: T1, hPHGDH (Homo sapiens, UniProt O43175); assay: hPHGDH reverse reaction kinetics (decrease in NADH fluorescence at 450 nm); conditions: for kcat: per monomer
T1 sequence (O43175 1-533): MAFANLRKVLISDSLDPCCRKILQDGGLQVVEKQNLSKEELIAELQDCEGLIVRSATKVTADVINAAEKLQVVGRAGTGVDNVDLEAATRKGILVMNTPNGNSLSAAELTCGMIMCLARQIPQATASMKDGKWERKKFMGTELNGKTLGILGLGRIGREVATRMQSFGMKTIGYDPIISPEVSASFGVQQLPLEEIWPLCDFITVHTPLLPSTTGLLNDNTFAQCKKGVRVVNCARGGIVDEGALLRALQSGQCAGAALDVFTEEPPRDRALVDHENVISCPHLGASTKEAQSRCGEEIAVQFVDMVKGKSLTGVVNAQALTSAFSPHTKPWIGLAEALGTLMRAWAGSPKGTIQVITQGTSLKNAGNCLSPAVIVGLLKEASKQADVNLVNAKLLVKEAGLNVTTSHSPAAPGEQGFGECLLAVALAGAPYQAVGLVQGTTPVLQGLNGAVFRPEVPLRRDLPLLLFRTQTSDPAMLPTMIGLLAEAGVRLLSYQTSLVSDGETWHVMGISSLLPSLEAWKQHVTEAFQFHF
Text: The latter assay was used to determine the apparent kinetic parameters on alternative substrates.

hPHGDH [2] = molecular target: T1, hPHGDH; assay: Ligand binding by quenching of protein fluorescence at 330 nm
Procedure: Protein fluorescence spectra were measured at 0.06–0.1 mg/mL protein concentration in 10 mM potassium phosphate, pH 7.0, 15 °C; spectra were recorded using a Jasco FP-750 instrument and were corrected for the buffer contribution. Protein fluorescence spectra were recorded between 300 and 450 nm, with excitation at 280 and 298 nm.
All recorded spectra were subtracted for the contribution of the ligand (added to the buffer only) and were corrected for dilution at every addition. […] In all cases, Kd values were determined by fitting the data to a hyperbolic function.

hPHGDH [3] = molecular target: T1, hPHGDH; assay: Temperature-ramp unfolding (melting temperature) with cofactors; assay type: binding; parameters: His-tagged full-length hPHGDH was expressed in BL21(DE3) E. coli cells; made in house; host or cells: E. coli BL21(DE3)
Procedure: Temperature-ramp experiments were performed in 10 mM potassium phosphate, pH 7.0. For this, a software-driven, Peltier-equipped fluorimeter was used to measure the protein fluorescence change at 330 nm or a CD spectropolarimeter to follow the CD signal at 280 nm in order to reproduce a temperature gradient (0.5 °C/min) [31].

hPHGDH [4] = molecular target: T1, hPHGDH; assay: Effect of salts, phosphate and serine synthesis metabolites on hPHGDH activity (hydrazine assay); assay type: biochemical; parameters: His-tagged full-length hPHGDH was expressed in BL21(DE3) E. coli cells; made in house; host or cells: E. coli BL21(DE3); conditions: up to 50 mM final concentration
Text: The effects of KCl, NaCl, MgCl2 and CaCl2 and of pH and temperature on enzyme activity and stability were investigated using the hydrazine assay. […] The dependence of activity on pH was fitted using an equation for three pKa values, according to [44], providing apparent values unrelated to microscopic ones.

M. tuberculosis PHGDH = conditions: reverse reaction; cited from earlier work
E. coli PHGDH = conditions: reverse reaction; cited from earlier work
[5] = Maximal solubility of inhibitor stock; assay type: physicochemical; conditions: dissolved in DMSO
hPHGDH [6] = molecular target: T1, hPHGDH; assay: Inhibition of hPHGDH activity by inhibitors (hydrazine assay); assay type: biochemical; parameters: His-tagged full-length hPHGDH was expressed in BL21(DE3) E. coli cells; made in house; host or cells: E. coli BL21(DE3); conditions: kinetics on 3PG at increasing inhibitor concentration
[7] = molecular target: the molecule itself; assay: SEC; Superdex 200 Increase column, potassium phosphate pH 7.0 (20 mM with 0.15 M NaCl); major peak approx. 240 kDa; monomers to tetramer
[8] = substrate: CC(O)CC(=O)O; assay: purified protein, by the assay type; conditions: hydrazine assay, pH 7.0
[9] = substrate: O=C(O)CC(=O)C(=O)O; assay: purified protein, by the assay type; conditions: other: reverse reaction, substrate varied, 5 mM NADH, 37 °C, pH 7.0
[10] = substrate: NC(=O)C1=CN([C@@H]2O[C@H](COP(=O)(O)OP(=O)(O)OC[C@H]3O[C@@H](n4cnc5c(N)ncnc54)[C@H](O)[C@@H]3O)[C@@H](O)[C@H]2O)C=CC1; assay: purified protein, by the assay type; conditions: other: reverse reaction, NADH varied, 0.5 mM PHP, 37 °C, pH 7.0
[11] = substrate: O=C(O)C(=O)COP(=O)(O)O; assay: purified protein, by the assay type; conditions: pH 7.0
[12] = substrate: C[C@@H](O)C(=O)O; assay: purified protein, by the assay type; conditions: other: forward reaction, substrate varied, 1.5 mM NAD^+, hydrazine assay, 37 °C, pH 7.0, per monomer
[13] = substrate: O=C(O)C(O)C(O)C(=O)O; assay: purified protein, by the assay type; conditions: other: forward reaction, substrate varied, 1.5 mM NAD^+, hydrazine assay, 37 °C, pH 7.0
[14] = substrate: O=C(O)C(O)COP(=O)(O)O; assay: purified protein, by the assay type; conditions: pH 7.0
[15] = molecular target: the molecule itself; assay: SEC; Superdex 200 Increase column, increasing potassium phosphate pH 7.0 (100, 250, 500 mM; 0.15 M NaCl added at 100 mM); minor peak ~480 kDa confirmed by anti-His Western blot; tetramers to octamer
[16] = substrate: NC(=O)c1ccc[n+]([C@@H]2O[C@H](COP(=O)(O)OP(=O)(O)OC[C@H]3O[C@@H](n4cnc5c(N)ncnc54)[C@H](O)[C@@H]3O)[C@@H](O)[C@H]2O)c1; assay: purified protein, by the assay type; assay type: biochemical, human; conditions: 2.5 mM 3PG, pH 7.0; for Km: other: NAD+ varied, Figure S3C
Procedure: (§1) PSAT was added to drive the reaction and to avoid product inhibition of hPHGDH.

[17] = substrate: O=C(O)CC(O)C(=O)O; assay: purified protein, by the assay type; assay type: biochemical, human; conditions: hydrazine assay, pH 7.0
Procedure: as §1

[18] = reverse reaction, NADH varied, 0.5 mM PHP, 37 °C, pH 7.0
[19] = other: forward reaction, substrate varied, 1.5 mM NAD^+, 37 °C
[20] = other: reverse reaction (discussion value)
[21] = other: reverse reaction, substrate varied, 150 µM NADH, 37 °C
[22] = other: reverse reaction, substrate varied, 5 mM NADH, 37 °C
[23] = other: forward reaction, substrate varied, 120 µM NAD^+, PSAT-coupled (1) and hydrazine (2) assays, 37 °C
[24] = other: forward reaction, substrate varied, 1.5 mM NAD^+, hydrazine assay, 37 °C
[25] = other: forward reaction, substrate varied, […] NAD^+, 37 °C

In the case of `NC(=O)C1=CN([C@@H]2O[C@H](COP(=O)(O)OP(=O)(O)OC[C@H]3O[C@@H](n4cnc5c(N)ncnc54)[C@H](O)[C@@H]3O)[C@@H](O)[C@H]2O)C=CC1` [NADH], the Kd (truncated hPHGDH form) is given as 0.2 µM, the Km (hPHGDH [1]; [18]) is given as 560 µM and the kcat (hPHGDH [1]; [18]) is given as 3.4 s⁻¹. For the same molecule, the “maximal rate of Michaelis–Menten fit” value (hPHGDH [1]; reverse reaction, NADH varied, 0.5 mM PHP, Figure S4B) was 3.3684, the Kd (hPHGDH [2]; Kd (NAD^+; main phase of NADH binding), discussion value) was about 130 µM and the Kd (hPHGDH [2]; Kd, first phase, free enzyme, 15 °C) was 0.49 ± 0.03 µM. For the same molecule, the Kd (hPHGDH [2]; Kd, second phase, free enzyme, 15 °C) was 168 µM and 169 µM, the “amplitude of protein fluorescence quenching, first phase” value (hPHGDH [2]; free enzyme) was about 35% and the “amplitude of protein fluorescence quenching, second phase” value (hPHGDH [2]; free enzyme) was 65%. The “Tm, circular dichroism signal at 280 nm” value (hPHGDH [3]; 120 µM NAD^+ or 100 µM NADH, protein alone 47.5) was 51.0 °C, the “Tm, CD (220 nm)” value (hPHGDH [3]; +120 μM NAD^+ or +100 μM NADH, hPHGDH alone 47.2 ± 0.5) was 51.0 ± 0.3 °C and the “Tm, Fluorescence (330 nm)” value (hPHGDH [3]; +120 μM NAD^+ or +100 μM NADH, hPHGDH alone 48.4 ± 2.1) was 55.7 °C and 55.7 ± 0.1 °C.

In the case of `O=C(O)C(=O)COP(=O)(O)O` [PHP, 3-phosphohydroxypyruvate], the “effect on hPHGDH activity on […] 3PG” value (hPHGDH [4]) is given as “not affected”, the Km (M. tuberculosis PHGDH) is given as 85 µM and the Ki (hPHGDH [1]; Ki (substrate inhibition), reverse reaction, 150 µM NADH, 37 °C, pH 7.0) is given as 2230 µM. It also gave a Ki (hPHGDH [1]; Ki (substrate inhibition), reverse reaction, 5 mM NADH, 37 °C, pH 7.0) of 1260 µM, a Ki (hPHGDH [1]; Ki of fit with substrate inhibition, reverse reaction, 150 µM NADH, Figure S4A) of 2230 µM and a Ki (hPHGDH [1]; Ki of fit with substrate inhibition, reverse reaction, 5 mM NADH, Figure S4A,C,D) of 1260 µM. For the same molecule, the “kinetic efficiency kcat/Km ratio, reverse reaction vs forward reaction on 3PG” value (hPHGDH [1]; higher than for the forward reaction on 3PG) was 20 fold, the “maximal rate of fit with substrate inhibition” value (hPHGDH [1]; reverse reaction, 150 µM NADH, Figure S4A) was 1.2871 and the “maximal rate of fit with substrate inhibition” value (hPHGDH [1]; reverse reaction, 5 mM NADH, Figure S4A,C,D) was 2.282. For the same molecule, the kcat (hPHGDH [1]; reverse reaction, substrate varied, 150 µM NADH, 37 °C, pH 7.0) was 1.3 s⁻¹ and the Km (E. coli PHGDH) was 40 µM.

With CBR-5884 the maximal solubility [5] was at most 1000 µM and the mechanism of inhibition (hPHGDH [6]) was “noncompetitive inhibition mechanism”.

B1: recombinant human D-3-phosphoglycerate dehydrogenase, His-tagged, full length (enzyme, UniProt O43175 1-533, looked up)
chain: MAFANLRKVLISDSLDPCCRKILQDGGLQVVEKQNLSKEELIAELQDCEGLIVRSATKVTADVINAAEKLQVVGRAGTGVDNVDLEAATRKGILVMNTPNGNSLSAAELTCGMIMCLARQIPQATASMKDGKWERKKFMGTELNGKTLGILGLGRIGREVATRMQSFGMKTIGYDPIISPEVSASFGVQQLPLEEIWPLCDFITVHTPLLPSTTGLLNDNTFAQCKKGVRVVNCARGGIVDEGALLRALQSGQCAGAALDVFTEEPPRDRALVDHENVISCPHLGASTKEAQSRCGEEIAVQFVDMVKGKSLTGVVNAQALTSAFSPHTKPWIGLAEALGTLMRAWAGSPKGTIQVITQGTSLKNAGNCLSPAVIVGLLKEASKQADVNLVNAKLLVKEAGLNVTTSHSPAAPGEQGFGECLLAVALAGAPYQAVGLVQGTTPVLQGLNGAVFRPEVPLRRDLPLLLFRTQTSDPAMLPTMIGLLAEAGVRLLSYQTSLVSDGETWHVMGISSLLPSLEAWKQHVTEAFQFHF
notes: D-3-phosphoglycerate dehydrogenase, human, 533 amino acids; synthetic gene back-translated from GenBank CAG33076.1, codon-optimised for E. coli, cloned in pETM11 (NcoI/XhoI); The N-terminal 6xHis tag of pETM11 can be cut by TEV protease, but no cleavage is reported; the tagged monomer has a theoretical mass of 59.776 kDa and was detected with an anti-His antibody in the SEC peaks; Tetramer in …
With B1 the “stoichiometry N” value [7] was 4, the Km [8, 19] was 41000 ± 19000 µM and the kcat [8, 19] was 2.53 s⁻¹. For the same molecule, the kcat/Km [8, 19] was 61 M⁻¹ s⁻¹, the Km ([8]; other: substrate varied, 1.5 mM NAD+, Figure S3B,D-F, 37.0 °C) was 41800 µM and the Km [9] was 0.90 ± 0.42 [Ki = 152 ± 56] mM. For the same molecule, the kcat [9] was 1.76 ± 0.20 s⁻¹, the kcat/Km [9] was 1960 M⁻¹ s⁻¹ and the Km [10] was 559 ± 75 µM. For the same molecule, the kcat [10] was 3.37 s⁻¹, the kcat/Km [10] was 6000 M⁻¹ s⁻¹ and the Km [11, 20] was 10 µM. For the same molecule, the kcat [11, 20] was 2.28 ± 0.14 s⁻¹, the kcat/Km [11, 20] was 228000 M⁻¹ s⁻¹ and the Km ([11]; other: reverse reaction, 150 µM NADH, Figure S4A) was 14.1 µM. For the same molecule, the Km ([11]; other: reverse reaction, 5 mM NADH, Figure S4A,C,D) was 10.2 µM, the Km [11, 21] was 0.014 ± 0.003 [Ki = 2.23 ± 0.37] mM and the kcat [11, 21] was 1.29 ± 0.09 s⁻¹. The kcat/Km [11, 21] was 91100 M⁻¹ s⁻¹, the Km [11, 22] was 0.010 ± 0.003 [Ki = 1.26 ± 0.25] mM and the kcat [11, 22] was 2.28 ± 0.14 s⁻¹. The kcat/Km [11, 22] was 228000 M⁻¹ s⁻¹, the kcat [12] was 5.41 s⁻¹ and the kcat/Km [12] was 36 M⁻¹ s⁻¹. The Km [13] was 5550 ± 2730 µM, the kcat [13] was 0.41 s⁻¹ and the kcat/Km [13] was 74 M⁻¹ s⁻¹. For the same molecule, the Km ([14]; other: 3PG varied, 120 µM NAD+, PSAT-coupled assay, Figure S3A, 37.0 °C) was 252 µM, the Km ([14]; other: 3PG varied, 120 µM NAD+, hydrazine assay, Figure S3A, 37.0 °C) was 317 µM and the Km [14, 23] was 255 ± 59 µM. For the same molecule, the kcat [14, 23] was 1.48 s⁻¹, the kcat/Km [14, 23] was 5800 M⁻¹ s⁻¹ and the Km [14, 24] was 360 ± 61 µM. It also gave a kcat [14, 24] of 2.97 s⁻¹, a kcat/Km [14, 24] of 8250 M⁻¹ s⁻¹ and a Km ([14]; other: substrate varied, 1.5 mM NAD+, hydrazine assay, Figure S3B,D-F, 37.0 °C) of 359 µM. For the same molecule, the “stoichiometry N” value [15] was 8, the Km ([16]; PSAT-coupled assay) was 133 µM and the Km ([16]; hydrazine assay) was 162 µM. The kcat/Km ([16]; other: forward reaction, NAD^+ varied, assays 1,2, 37 °C) was 15100 M⁻¹ s⁻¹, the Km [17, 25] was 4480 ± 870 µM and the kcat [17, 25] was 0.44 ± 0.01 s⁻¹. For the same molecule, the kcat/Km [17, 25] was 98 M⁻¹ s⁻¹ and the Km ([17]; other: substrate varied, […] NAD+, Figure S3B,D-F) was 4480 µM.

From paper PMC8073719, “Biochemical and Biophysical Characterization of Recombinant Human 3-Phosphoglycerate Dehydrogenase” (International Journal of Molecular Sciences, 2021)
